The target in this experiment is chimeric LILRB2-PILRβ receptor (aa 24-458 of hLILRB2) on mouse T cell hybridoma NFAT-GFP reporter cells (human), Q8N423. In words: cell-based or functional assay.
chimeric LILRB2-PILRβ receptor (aa 24-458 of hLILRB2) on mouse T cell hybridoma NFAT-GFP reporter cells (human), Q8N423, sequence (Q8N423 other isoform, or with tags, fused parts or gaps mutant limits assumed, form in doubt): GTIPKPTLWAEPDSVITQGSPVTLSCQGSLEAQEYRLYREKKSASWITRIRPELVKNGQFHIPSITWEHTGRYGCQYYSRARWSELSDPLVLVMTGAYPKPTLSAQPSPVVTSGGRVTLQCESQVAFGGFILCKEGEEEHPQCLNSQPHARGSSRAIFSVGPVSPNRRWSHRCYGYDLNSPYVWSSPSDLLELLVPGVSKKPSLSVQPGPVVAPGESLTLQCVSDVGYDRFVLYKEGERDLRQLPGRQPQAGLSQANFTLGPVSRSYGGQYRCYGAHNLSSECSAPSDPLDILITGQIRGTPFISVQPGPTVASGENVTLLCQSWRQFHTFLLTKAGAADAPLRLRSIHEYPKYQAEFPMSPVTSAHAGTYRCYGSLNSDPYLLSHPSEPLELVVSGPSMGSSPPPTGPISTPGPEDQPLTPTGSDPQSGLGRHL

B1: Angptl2-FLAG, full-length human Angptl2 secreted from transfected 293T cells, Q9UKU9 23-493 (ligand, not shown: small tags and cut ends)
chain: QEDGFEGTEEGSPREFIYLNRYKRAGESQDKCTYTFIVPQQRVTGAICVNSKEPEVLLENRVHKQELELLNNELLKQKRQIETLQQLVEVDGGIVSEVKLLRKESRNMNSRVTQLYMQLLHEIIRKRDNALELSQLENRILNQTADMLQLASKYKDLEHKYQHLATLAHNQSEIIAQLEEHCQRVPSARPVPQPPPAAPPRVYQPPTYNRIINQISTNEIQSDQNLKVLPPPLPTMPTLTSLPSSTDKPSGPWRDCLQALEDGHDTSSIYLVKPENTNRLMQVWCDQRHDPGGWTVIQRRLDGSVNFFRNWETYKQGFGNIDGEYWLGLENIYWLTNQGNYKLLVTMEDWSGRKVFAEYASFRLEPESEYYKLRLGRYHGNAGDSFTWHNGKQFTTLDRDHDVYTGNCAHYQKGGWWYNACAHSNLNGVWYRGGHYRSRYQDGVYWAEFRGGSYSLKKVVMMIRPNPNTFH
B1 showed a GFP expression of LILRB2 reporter cells after 24 h with Angptl2 conditioned medium (2 µg/ml); control: mock medium of 18.9%.

Values taken from patent US20170260508A1.
